Changes are numbered by the printed parent chain. Names and notes keep the numbering of the source.
T1: biotinylated huIL-23R-IgG (human, UniProt Q5VWK5 24-353, biotinylated)
T1 construct: not shown: human IgG1 Fc
T1 sequence: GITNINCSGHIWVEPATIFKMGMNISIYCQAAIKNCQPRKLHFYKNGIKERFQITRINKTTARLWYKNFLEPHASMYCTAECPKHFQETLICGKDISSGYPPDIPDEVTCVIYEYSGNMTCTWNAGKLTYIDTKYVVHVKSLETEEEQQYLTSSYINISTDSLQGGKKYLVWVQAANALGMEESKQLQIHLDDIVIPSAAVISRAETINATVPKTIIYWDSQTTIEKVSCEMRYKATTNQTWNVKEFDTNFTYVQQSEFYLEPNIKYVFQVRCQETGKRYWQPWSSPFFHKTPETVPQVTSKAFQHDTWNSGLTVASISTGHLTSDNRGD

T2: human IL-23R (human, UniProt Q5VWK5 24-353, limits assumed)
T2 construct: also called huIL-23R; human interleukin-23R
T2 sequence: T1 sequence

B1: chimeric 8B10 Fab, VL N31del (Fab, V domains shown)
VH: EVKLVESGGGLEQPKGSLKLSCTVSGFDFNSYGMSWVRQAPGKGLDLVADINSKSYNYATYYADSVKDRFTISRDDSQSMVYLEMDNLKTEDTALYYCTVHHSDYFEYWGQGVMVTVSS
VL: DIQMTQSPASLSASLGETVSIECLASEDIYNLAWYQQKPGKSPQLLIYHASSLQDGVPSRFSGSGSGTQYSLKINSLESEDAATYFCLQDSEYPPTFGGGTKLELK
notes: Rat V domains with human CH1 and CL; E. coli periplasmic extract
B2: chimeric 8B10 Fab, VL Y94A (Fab, V domains shown)
VH: B1 VH
VL: DIQMTQSPASLSASLGETVSIECLASEDIYNNLAWYQQKPGKSPQLLIYHASSLQDGVPSRFSGSGSGTQYSLKINSLESEDAATYFCLQDSEAPPTFGGGTKLELKR
notes: as for B1
B3: chimeric 8B10 Fab, VH Y32A (Fab, V domains shown)
VH: B1 VH with Y32A
VL: B2 VL with A94Y
notes: as for B1
B4: chimeric 8B10 Fab, VH Y58G (Fab, V domains shown)
VH: B1 VH with Y58G
VL: B2 VL with A94Y
notes: as for B1
B5: chimeric 8B10 Fab, VL S92A (Fab, V domains shown)
VH: B1 VH
VL: B2 VL with S92A, A94Y
notes: as for B1
B6: chimeric 8B10 Fab, VL H50A (Fab, V domains shown)
VH: B1 VH
VL: B2 VL with H50A, A94Y
notes: as for B1
B7: chimeric 8B10 Fab, VL N31A (Fab, V domains shown)
VH: B1 VH
VL: B2 VL with N31A, A94Y
notes: as for B1
B8: chimeric 8B10 Fab, VH Y61A (Fab, V domains shown)
VH: B1 VH with Y61A
VL: B2 VL with A94Y
notes: as for B1
B9: chimeric 8B10 Fab, VL Y30A (Fab, V domains shown)
VH: B1 VH
VL: B2 VL with Y30A, A94Y
notes: as for B1
B10: chimeric 8B10 Fab, VL E27A (Fab, V domains shown)
VH: B1 VH
VL: B2 VL with E27A, A94Y
notes: as for B1
B11: chimeric 8B10 Fab, VL N32A (Fab, V domains shown)
VH: B1 VH
VL: B2 VL with N32A, A94Y
notes: as for B1
B12: chimeric 8B10 Fab, VL E93A (Fab, V domains shown)
VH: B1 VH
VL: B2 VL with E93A, A94Y
notes: as for B1
B13: chimeric 8B10 Fab, VL Y49A (Fab, V domains shown)
VH: B1 VH
VL: B2 VL with Y49A, A94Y
notes: as for B1
B14: chimeric 8B10 Fab, VL D28A (Fab, V domains shown)
VH: B1 VH
VL: B2 VL with D28A, A94Y
notes: as for B1
B15: chimeric 8B10 Fab, VL S53A (Fab, V domains shown)
VH: B1 VH
VL: B2 VL with S53A, A94Y
notes: Rat V domains with human CH1 and CL; E. coli periplasmic extract; also called S53A (light chain variable domain)
B16: chimeric 8B10 Fab, VL N31T (Fab, V domains shown)
VH: B1 VH
VL: B2 VL with N31T, A94Y
notes: as for B1
B17: chimeric 8B10 Fab, VH Y105A (Fab, V domains shown)
VH: B1 VH with Y105A
VL: B2 VL with A94Y
notes: as for B1
B18: chimeric 8B10 Fab, VL D91A (Fab, V domains shown)
VH: B1 VH
VL: B2 VL with D91A, A94Y
notes: as for B1
B19: humanized anti-human IL-23R antibody hu8B10-b (antibody, V domains shown)
VH: QVQLVESGGGVVQPGRSLRLSCAASGFDFNSYGMSWVRQAPGKGLDLVADINSKSYNYATYYADSVKDRFTISRDNSKNTLYLQMNSLRAEDTAVYYCAVHHSDYFEYWGQGTLVTVSS
VL: DIQMTQSPSSLSASVGDRVTITCRASQDIYTNLAWYQQKPGKAPKLLIYHASSLQDGVPSRFSGSGSGTDYTLTISSLQPEDFATYYCLQDSEYPPTFGQGTKVEIKR
B20: hu8B10-b variant, VL D56S (antibody, V domains shown)
VH: B19 VH
VL: B19 VL with D56S
notes: also called VH: 8B10-b / VL: 8B10-b D56S
B21: hu8B10-b variant, VL D56E (antibody, V domains shown)
VH: B19 VH
VL: B19 VL with D56E
notes: also called VH: 8B10-b / VL: 8B10-b D56E
B22: hu8B10-b variant, VH N57D (antibody, V domains shown)
VH: B19 VH with N57D
VL: B19 VL
notes: also called VH: 8B10-b N57D / VL: 8B10-b
B23: humanized anti-human IL-23R antibody hu8B10-c (antibody, V domains shown)
VH: B19 VH with N30S
VL: B19 VL with D56S
notes: 8B10-b with VL D56S and VH N30S
B24: antibody with hu8B10-b VH and hu8B10 VL N31T (antibody, V domains shown)
VH: B19 VH
VL: B19 VL with R24L, Q27E, Y71F
notes: also called VH: hu8B10-b / VL: hu8B10 N31T
B25: hu8B10-b variant, VH N52D (antibody, V domains shown)
VH: B19 VH with N52D
VL: B19 VL
notes: also called VH: 8B10-b N52D / VL: 8B10-b
B26: hu8B10-b variant, VH N52S (antibody, V domains shown)
VH: B19 VH with N52S
VL: B19 VL
notes: also called VH: 8B10-b N52S / VL: 8B10-b
B27: hu8B10-b variant, VL N32S (antibody, V domains shown)
VH: B19 VH
VL: B19 VL with N32S
notes: also called VH: 8B10-b / VL: 8B10-b N32S
B28: hu8B10-b variant, VH N30S (antibody, V domains shown)
VH: B19 VH with N30S
VL: B19 VL
notes: also called VH: 8B10-b N30S / VL: 8B10-b
B29: hu8B10-b variant, VH N30D (antibody, V domains shown)
VH: B19 VH with N30D
VL: B19 VL
notes: also called VH: 8B10-b N30D / VL: 8B10-b
B30: antibody with hu8B10 VH and hu8B10 VL N31T (antibody, V domains shown)
VH: B19 VH with D46E, L47W, V100R
VL: B19 VL with R24L, Q27E, Y71F
notes: also called VH: hu8B10 / VL: hu8B10 N31T
B31: hu8B10-b variant, VH N57S (antibody, V domains shown)
VH: B19 VH with N57S
VL: B19 VL
notes: also called VH: 8B10-b N57S / VL: 8B10-b

target: T1, biotinylated huIL-23R-IgG; experiment: ECL binding assay, Binding (% of w.t.)
Excerpt: (§1) The N31T change was introduced as a result of affinity maturation experiments, as follows. An E. coli expression vector for expression into the periplasmic space was constructed encoding a chimeric Fab fragment of rat antibody 8B10 comprising rat variable domains, a human constant light chain domain (CL) and a human constant heavy chain domain CH1. Mutations were introduced using a QuikChange® site directed mutagenesis kit (Stratagene Inc., LaJolla, Calif., USA). Primers were designed to replace selected positions with either alanine, or by all 20 amino acids, using the NNK codon approach (N includes an equimolar mix of A/G/C/T and K includes only G/T). To reduce background, alanine mutants at each position were used as the template for the randomization step. Unpurified periplasmic extracts were then tested for human IL-23R binding activity using an electrochemiluminescence assay with biotinylated huIL-23R-IgG and goat anti-huFab-Ori-Tag for detection. The area under the curve was used to compare the binding activity of sequence variants to the original parental 8B10 Fab. Data were fitted using GraphPad Prism® 3.0 software (Graphpad Software inc., San Diego, Calif. USA).

Row | binding result | Binder
1 | no binding | B1
2 | no binding | B2

target: T1, biotinylated huIL-23R-IgG; experiment: ECL binding assay, periplasmic Fab extracts, biotinylated huIL-23R-IgG; AUC vs parental 8B10 Fab
Excerpt: as §1

Row | Binding (% of w.t.) | Binder
3 | 76.3 % of w.t. | B3
4 | 53 % of w.t. | B4
5 | 68.4 % of w.t. | B5
6 | 62.2 % of w.t. | B6
7 | 117 % of w.t. | B7
8 | 41.7 % of w.t. | B8
9 | 3.2 % of w.t. | B9
10 | 96.2 % of w.t. | B10
11 | 13.4 % of w.t. | B11
12 | 62.8 % of w.t. | B12
13 | 62.4 % of w.t. | B13
14 | 93.1 % of w.t. | B14
15 | 85 % of w.t. | B15
16 | 129 % of w.t. | B16
17 | 18.3 % of w.t. | B17
18 | 5.6 % of w.t. | B18

target: T2, human IL-23R; experiment: BIAcore SPR, antibody immobilised
Protocol: BIAcore® label-free interaction analysis system determinations are performed essentially as described at Example 4 of U.S. Patent Application Publication No. 2007/0048315, which is hereby incorporated by reference. Briefly, ligands (anti-IL-23R mAbs) are immobilized on a BIAcore® label-free interaction analysis system CM5 sensor chip using standard amine-coupling procedure. Kinetic constants for the various interactions are determined using BIAevaluation software 3.1. The Kd is determined using the calculated dissociation and association rate constants.
Several sequence variants intended to increase the chemical stability of hu8B10-b were produced to evaluate their effects on binding affinity. Kd values are provided at Table 3. Binding to human IL-23R was determined using the BIAcore® label-free interaction analysis system (surface plasmon resonance), essentially as described in Example 4 (supra). Chimeric forms, designated as “chim,” refers to rat variable domains linked to human IgG1 heavy chain and human kappa light chain constant domains, e.g., as presented at SEQ ID NOs: 16 and 17, respectively, or as at SEQ ID NOs: 22 and 23, respectively. Sequences for heavy and light chain variable domains are provided at FIGS. 1 and 2, and in the Sequence Listing (as described at Table 4). Antibodies incorporate the sequence changes recited in the table (“Variant(s)”) for the respective heavy and light chains. Data arc presented as mean±standard deviation for multiple determinations, and without error estimates for single determinations.

Row | Kd | binding result | Binder
19 | 154 pM |  | B19
20 | 187 pM |  | B20
21 | 179 pM |  | B21
22 | 220 pM |  | B22
23 | 180 pM |  | B23
24 | 5380 pM |  | B24
25 |  | no binding | B25
26 | 444 pM |  | B26
27 | 19200 pM |  | B27
28 | 168 pM |  | B28
29 | 114 pM |  | B29
30 |  | no binding | B30
31 | 382 pM |  | B31
